The values below come from paper doi:10.1101/2022.09.12.507593 (bioRxiv, 2022).

Sequences and labels used below:
B1: WT FUS LCRN (Fused in sarcoma N-terminal low-complexity region, aa 1-214) (domain or fragment, human, UniProt P35637 1-214, looked up)
chain: MASNDYTQQATQSYGAYPTQPGQGYSQQSSQPYGQQSYSGYSQSTDTSGYGQSSYSSYGQSQNTGYGTQSTPQGYGSTGGYGSSQSSQSSYGQQSSYPGYGQQPAPSSTSGSYGSSSQSSSYGQPQSGSYSQQPSYGGQQQSYGQQQSYNPPQGYGQQNQYNSSSGGGGGGGGGGNYGQDQSSMSSGGGSGGGYGNQDQSGGGGSGGYGQQDRG

Assay [1] addresses T1, OGT-TPR not fused to SUMO (aa 2-474 of ncOGT, SUMO tag removed) (human, UniProt O15294-1 2-474).
T1 sequence (looked up): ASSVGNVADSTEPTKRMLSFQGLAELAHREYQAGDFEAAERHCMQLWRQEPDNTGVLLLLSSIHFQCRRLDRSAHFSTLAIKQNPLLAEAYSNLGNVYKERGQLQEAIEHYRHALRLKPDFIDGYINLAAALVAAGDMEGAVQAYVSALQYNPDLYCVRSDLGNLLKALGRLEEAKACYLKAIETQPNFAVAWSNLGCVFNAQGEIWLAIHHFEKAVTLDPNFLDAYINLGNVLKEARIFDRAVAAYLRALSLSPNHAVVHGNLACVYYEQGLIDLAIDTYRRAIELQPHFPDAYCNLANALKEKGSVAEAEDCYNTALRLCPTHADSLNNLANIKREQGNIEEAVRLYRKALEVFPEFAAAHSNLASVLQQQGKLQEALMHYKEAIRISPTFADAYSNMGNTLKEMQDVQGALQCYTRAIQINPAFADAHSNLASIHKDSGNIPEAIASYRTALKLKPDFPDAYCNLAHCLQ
Description: NMR titration.

For assay [2], the target named is B1. Kind of assay: NMR titration.

Turning to B1, the binding result in assay [1] was “binds”.

B2: SUMO-fused TPR region of OGT (OGT-TPR, aa 2-474 of ncOGT) (domain or fragment, human, UniProt O15294-1 2-474, looked up)
chain: ASSVGNVADSTEPTKRMLSFQGLAELAHREYQAGDFEAAERHCMQLWRQEPDNTGVLLLLSSIHFQCRRLDRSAHFSTLAIKQNPLLAEAYSNLGNVYKERGQLQEAIEHYRHALRLKPDFIDGYINLAAALVAAGDMEGAVQAYVSALQYNPDLYCVRSDLGNLLKALGRLEEAKACYLKAIETQPNFAVAWSNLGCVFNAQGEIWLAIHHFEKAVTLDPNFLDAYINLGNVLKEARIFDRAVAAYLRALSLSPNHAVVHGNLACVYYEQGLIDLAIDTYRRAIELQPHFPDAYCNLANALKEKGSVAEAEDCYNTALRLCPTHADSLNNLANIKREQGNIEEAVRLYRKALEVFPEFAAAHSNLASVLQQQGKLQEALMHYKEAIRISPTFADAYSNMGNTLKEMQDVQGALQCYTRAIQINPAFADAHSNLASIHKDSGNIPEAIASYRTALKLKPDFPDAYCNLAHCLQ
With B2, the “average peak intensity ratio (plus OGT-TPR/apo)” value in assay [2] is 0.48.
